Binding result and Kd data for 2 molecules are collected here from patent publication US20090117097A1 (Chugai, published 2009).

In general, Kd refers to the concentration at which binding is half-saturated.

Assay [1] deals with T1, GST fusion protein containing MG8 (Gln26 to Pro217) of human Mp1 (human, UniProt P40238 26-217).
T1 construct: range 26-217; not shown: glutathione S-transferase (GST) encoded by vector pGEX-4T-3 (Amersham Biosciences)
T1 sequence (looked up): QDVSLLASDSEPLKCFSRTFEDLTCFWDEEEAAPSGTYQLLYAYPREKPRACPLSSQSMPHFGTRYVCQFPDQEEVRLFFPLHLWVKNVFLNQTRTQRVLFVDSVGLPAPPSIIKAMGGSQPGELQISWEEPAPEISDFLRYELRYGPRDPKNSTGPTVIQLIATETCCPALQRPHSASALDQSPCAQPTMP
Put plainly: Western blotting of GST fusion proteins. How it is done: (§1) Since the anti-human Mp1 antibody VB22B can be used for Western blotting, a GST-fusion protein containing a partial sequence of human Mp1 was constructed for VB22B epitope analysis. MG1 (Gln26 to Trp491) and MG2 (Gln26 to Leu274) regions were each amplified by PCR, and cloned into pGEX-4T-3 (Amersham Biosciences) to be expressed as GST fusion proteins. The resulting plasmid DNAs were transformed into DH5α to give transformants. A final concentration of 1 mM IPTG was added to the transformants in their logarithmic growth phase to induce the expression of GST fusion proteins. The bacterial cells were harvested after two hours of incubation. The cells were lysed by sonication. The lysates were centrifuged in XL-80 Ultracentrifuge (Beckman, Rotor 70.1Ti) at 35,000 rpm for 30 min. The culture supernatants were removed, and then the fusion proteins were purified using GST Purification Modules (Amersham Biosciences). The samples were separated by 10%-SDS-PAGE, and then transferred onto a PVDF membrane. The membrane was analyzed by the murine antibody VB22B in Western blotting.
(§2) Then, GST fusion proteins containing the respective regions of human Mp1: MG3 (Gln26 to Ala189), MG4 (Gln26 to Pro106), MG5 (Gln26 to Glu259), and MG6 (Gln26 to Gly245) were prepared and analyzed by Western blotting using the same procedure described above. […] In addition, GST was fused with MG7 (Gln26 to Ala231) and MG8 (Gln26 to Pro217) to prepare GST fusion proteins.
On the technique in general: Immunoblotting shows a protein as a band on a membrane.

The target of assay [2] is T2, GST fusion protein containing MG3 (Gln26 to Ala189) of human Mp1 (human, UniProt P40238 26-189).
T2 construct: range 26-189; not shown: glutathione S-transferase (GST) encoded by vector pGEX-4T-3 (Amersham Biosciences)
T2 sequence (looked up): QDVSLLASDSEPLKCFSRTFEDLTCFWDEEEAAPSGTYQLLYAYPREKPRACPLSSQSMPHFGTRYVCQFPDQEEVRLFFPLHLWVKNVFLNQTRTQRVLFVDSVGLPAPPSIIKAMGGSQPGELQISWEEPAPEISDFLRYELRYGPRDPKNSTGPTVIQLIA
Put plainly: Western blotting of GST fusion proteins. How it is done: as §1, §2

Assay [3] deals with T3, GST fusion protein containing MG4 (Gln26 to Pro106) of human Mp1 (human, UniProt P40238 26-106).
T3 construct: range 26-106; not shown: glutathione S-transferase (GST) encoded by vector pGEX-4T-3 (Amersham Biosciences)
T3 sequence (looked up): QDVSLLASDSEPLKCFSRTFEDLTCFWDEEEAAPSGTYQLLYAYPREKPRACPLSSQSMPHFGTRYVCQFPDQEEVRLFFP
The assay is described as follows: Western blotting of GST fusion proteins. How it is done: as §1, §2

Assay [4] concerns the target T4, cynomolgus monkey Mp1 expressed on CHO cells (CHO-monkey Mp1) (cynomolgus monkey, UniProt P40238 26-635 (human entry)).
T4 construct: also called monkey Mp1-expressing CHO cell line
T4 chain: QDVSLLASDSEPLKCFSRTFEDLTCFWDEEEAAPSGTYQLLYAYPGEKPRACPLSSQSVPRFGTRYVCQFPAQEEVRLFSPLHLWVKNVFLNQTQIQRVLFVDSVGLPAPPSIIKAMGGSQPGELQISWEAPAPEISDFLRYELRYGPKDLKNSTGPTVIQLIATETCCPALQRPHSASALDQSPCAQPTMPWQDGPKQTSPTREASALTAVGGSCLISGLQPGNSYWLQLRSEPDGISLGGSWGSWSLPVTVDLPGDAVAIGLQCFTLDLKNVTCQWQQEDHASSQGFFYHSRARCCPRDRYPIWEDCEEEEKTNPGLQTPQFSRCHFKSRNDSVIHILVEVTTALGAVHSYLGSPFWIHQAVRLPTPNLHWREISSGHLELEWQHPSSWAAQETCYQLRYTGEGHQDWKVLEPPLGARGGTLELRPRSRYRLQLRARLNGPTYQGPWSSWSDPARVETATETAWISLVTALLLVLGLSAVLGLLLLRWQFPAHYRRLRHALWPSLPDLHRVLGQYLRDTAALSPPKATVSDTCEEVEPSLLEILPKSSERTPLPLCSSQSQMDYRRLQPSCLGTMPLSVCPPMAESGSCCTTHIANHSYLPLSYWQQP
The assay is described as follows: flow cytometry on CHO cells expressing Mp1. (In general: In flow cytometry, cells or beads pass a laser one at a time.)

In assay [5] the target is T5, mouse Mp1 expressed on CHO cells (CHO-mouse Mp1) (mouse, UniProt Q08351 26-625).
T5 construct: whole, on cells; also called mouse Mp1-expressing CHO cell line
T5 sequence (looked up): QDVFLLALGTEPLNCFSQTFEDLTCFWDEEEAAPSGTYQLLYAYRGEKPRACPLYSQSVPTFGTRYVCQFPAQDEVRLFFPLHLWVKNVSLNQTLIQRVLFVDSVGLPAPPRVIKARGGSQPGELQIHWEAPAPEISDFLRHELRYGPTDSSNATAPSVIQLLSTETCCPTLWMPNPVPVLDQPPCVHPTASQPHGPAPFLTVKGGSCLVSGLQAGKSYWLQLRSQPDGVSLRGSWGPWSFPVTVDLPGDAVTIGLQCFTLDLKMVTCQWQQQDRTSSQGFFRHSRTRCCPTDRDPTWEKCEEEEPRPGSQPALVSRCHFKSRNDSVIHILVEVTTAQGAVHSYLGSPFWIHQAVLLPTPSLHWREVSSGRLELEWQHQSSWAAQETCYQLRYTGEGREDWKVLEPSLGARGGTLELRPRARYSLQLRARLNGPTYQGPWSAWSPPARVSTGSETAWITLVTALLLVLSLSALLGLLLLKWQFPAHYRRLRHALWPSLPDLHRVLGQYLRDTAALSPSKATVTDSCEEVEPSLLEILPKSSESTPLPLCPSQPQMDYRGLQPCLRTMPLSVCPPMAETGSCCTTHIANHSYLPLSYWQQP
Put plainly: flow cytometry on CHO cells expressing Mp1.

The target of assay [6] is T6, human Mp1-IgG Fc fusion protein (human, UniProt P40238 26-491).
T6 construct: range 26-491; Expressed in CHO-DG44 with a 19-amino acid signal peptide from a human IgG H chain variable region, left out here; also called hMp1-Fc; hMPL-Fc; not shown: Fc region of human IgG-gamma1 (a region downstream of Asp 216)
T6 sequence: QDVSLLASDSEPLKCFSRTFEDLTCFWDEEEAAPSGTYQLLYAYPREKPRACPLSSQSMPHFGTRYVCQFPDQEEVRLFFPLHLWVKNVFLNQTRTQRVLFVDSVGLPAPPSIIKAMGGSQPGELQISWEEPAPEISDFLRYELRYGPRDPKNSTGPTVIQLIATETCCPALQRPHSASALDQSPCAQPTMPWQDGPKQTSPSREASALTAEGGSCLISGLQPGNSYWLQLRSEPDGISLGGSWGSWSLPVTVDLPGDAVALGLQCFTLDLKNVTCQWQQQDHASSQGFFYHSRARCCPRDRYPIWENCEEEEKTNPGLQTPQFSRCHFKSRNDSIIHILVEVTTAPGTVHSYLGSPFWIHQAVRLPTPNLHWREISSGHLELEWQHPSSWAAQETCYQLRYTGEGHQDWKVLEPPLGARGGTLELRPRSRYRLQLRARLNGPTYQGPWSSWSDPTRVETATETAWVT
Put plainly: SPR (Biacore 2000), hMp1-Fc amine-coupled to CM5 chip, VB22B IgG injected at 1.25 to 20 ug/mL. How it is done:
Since the anti-human Mp1 antibody VB22B binds to soluble recombinant Mp1, kinetic analyses of the antigen-antibody reaction between VB22B IgG and human Mp1-IgG Fc fusion protein were carried out as described in Example 1.4. The Sensor Chip CM5 (Biacore) was placed in Biacore 2000 (Biacore), and human Mp1-IgG Fc fusion protein was immobilized onto the chip by amine-coupling methods. Then, 1.25 to 20 μg/mL of VB22B IgG solution was prepared using HBS-EP Buffer (Biacore), and injected over the chip surface for 2 min to reveal the binding region. Then, HBS-EP Buffer was injected over the chip surface for 2 min to reveal the dissociation region. VB22B IgG bound to the human Mp1-IgG Fc fusion protein on the sensor chip was removed by injecting 10 mM NaOH over the sensor chip for 15 sec, and the chip was recovered. HBS-EP Buffer was used as the running buffer, and the flow rate was 20 μL/min. Using the BIAevaluation Version 3.1 (Biacore) software, the reaction rate constant at each concentration was calculated from the sensorgrams.
On the technique in general: In SPR one partner is held on a chip, and binding of the other changes the refractive index at the surface.

Assay [7] addresses T7, human Mp1 expressed on CHO cells (CHO-human Mp1) (human, UniProt P40238 26-635).
T7 construct: whole, on cells; also called human Mp1-expressing CHO cell line
T7 sequence (looked up): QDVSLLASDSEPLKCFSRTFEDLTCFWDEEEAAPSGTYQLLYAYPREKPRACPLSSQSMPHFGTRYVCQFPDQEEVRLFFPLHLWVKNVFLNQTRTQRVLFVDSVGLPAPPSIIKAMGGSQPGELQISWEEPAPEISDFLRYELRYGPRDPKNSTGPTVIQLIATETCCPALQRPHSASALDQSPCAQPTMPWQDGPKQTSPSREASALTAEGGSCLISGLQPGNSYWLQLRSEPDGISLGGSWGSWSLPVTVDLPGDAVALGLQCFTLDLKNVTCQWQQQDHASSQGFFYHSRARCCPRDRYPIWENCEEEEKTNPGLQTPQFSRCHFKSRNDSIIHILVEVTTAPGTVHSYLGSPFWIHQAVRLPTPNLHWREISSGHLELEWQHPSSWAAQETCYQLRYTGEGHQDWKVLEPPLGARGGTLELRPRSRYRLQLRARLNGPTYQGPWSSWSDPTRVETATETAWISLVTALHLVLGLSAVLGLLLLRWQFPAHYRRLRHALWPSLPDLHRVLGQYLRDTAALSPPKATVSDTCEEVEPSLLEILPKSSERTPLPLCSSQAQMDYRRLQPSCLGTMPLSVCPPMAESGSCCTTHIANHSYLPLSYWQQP
Put plainly: flow cytometry on CHO cells expressing Mp1, detection with anti-FLAG M2 and FITC anti-mouse IgG. How it is done: (§3) CHO-human Mp1, CHO-monkey Mp1, and CHO-mouse Mp1 cells were recovered and suspended in FACS buffer (1% FBS/PBS) to a final concentration of 1×10⁶ cells/mL. Cell suspensions were aliquoted at 100-μL/well into the Multiscreen-HV Filter Plates (Millipore). After centrifugation, the supernatant was removed. An appropriate concentration of diabody or sc(Fv)2 was added into each well and incubated on ice for 30 min. The cells were washed once with 200 μL of FACS buffer, and incubated on ice for 30 min following the addition of 10 μg/mL ANTI-FLAG® M2 Monoclonal Antibody (Sigma-Aldrich). The cells were then washed once with 200 μL of FACS buffer, and a 100×-diluted FITC-labeled anti-mouse IgG antibody (Beckman Coulter) was added to the plate. The plate was incubated on ice for 30 min. After centrifugation, the supernatant was removed. The cells were suspended in 400 μL of FACS Buffer, and then analyzed by flow cytometry using EPICS ELITE ESP (Beckman Coulter). An analysis gate was set on the forward and side scatters of a histogram to include viable cell populations.
(§4) The binding activity of the purified VB22B sc(Fv)2 to various Mp1 molecules expressed in CHO cells was determined.

Assay [8] addresses T4, cynomolgus monkey Mp1 expressed on CHO …. The description is as above. How it is done: as §3, §4

B1: anti-human Mp1 antibody VB22B (VB22B IgG) (antibody, V domains shown)
VH: QVQLQQSGPELVKPGASVKISCKASGYAFTNSWMNWVKQRPGKGLEWIGRIYPGDGETIYNGKFRVKATLTADKSSSTAYMDISSLTSEDSAVYFCARGYDDYSFAYWGQGTLVTVSA
VL: DIVMTQAAPSIPVTPGESVSISCRSSKSLLHSNGNTYLYWFLQRPGQSPQLLIYRMSNLASGVPDRFSGSGSGTAFTLRISRVEAEDVGVYYCMQHIEYPFTFGSGTKLEIK
notes: Mouse monoclonal IgG purified from hybridoma supernatant; They were cloned with primers complementary to the mouse IgG2b and kappa constant regions; also called murine antibody VB22B
Turning to B1, the binding result in assay [1] was “no binding”; in assay [2] it was “no binding”; in assay [3] it was “no binding”; in assay [4] it was “binds”; in assay [5] it was “no binding”. In addition, the Kd in assay [6] stood at 1.67 nM.

B2: Murine VB22B sc(Fv)2 (scFv)
scFv: QVQLQQSGPELVKPGASVKISCKASGYAFTNSWMNWVKQRPGKGLEWIGRIYPGDGETIYNGKFRVKATLTADKSSSTAYMDISSLTSEDSAVYFCARGYDDYSFAYWGQGTLVTVSAGGGGSGGGGSGGGGSDIVMTQAAPSIPVTPGESVSISCRSSKSLLHSNGNTYLYWFLQRPGQSPQLLIYRMSNLASGVPDRFSGSGSGTAFTLRISRVEAEDVGVYYCMQHIEYPFTFGSGTKLEIKGGGGSGGGGSGGGGSQVQLQQSGPELVKPGASVKISCKASGYAFTNSWMNWVKQRPGKGLEWIGRIYPGDGETIYNGKFRVKATLTADKSSSTAYMDISSLTSEDSAVYFCARGYDDYSFAYWGQGTLVTVSAGGGGSGGGGSGGGGSDIVMTQAAPSIPVTPGESVSISCRSSKSLLHSNGNTYLYWFLQRPGQSPQLLIYRMSNLASGVPDRFSGSGSGTAFTLRISRVEAEDVGVYYCMQHIEYPFTFGSGTKLEIK
notes: Single chain sc(Fv)2, VH-(Gly4Ser)3-VL-(Gly4Ser)3-VH-(Gly4Ser)3-VL, with a FLAG tag (detected with anti-FLAG M2); also called mVB22B
As to B2, the binding result in assay [5] is “no binding”; in assay [7], “binds”; in assay [8], “binds”.
